Reference: patent publication US5658784, “Nucleic acid encoding transcription factor p300 and uses of p300” (Dana-Farber Cancer Institute, Inc., dated 1997)

Molecular target: p300 (endogenous human E1A-associated 300 kD protein) (human)
Experiment: co-immunoprecipitation with anti-E1A M73 from 35S labelled infected U-2 OS cells

B1: E1A proteins of adenovirus dl646 (missing amino acids 30-85) (other)
chain: MRHIICHGGVITEEMAASLLDQLIEEVLAAPGSPEPPHLSRQPEQPEQRALGPVSMPNLVPEVIDLTCHEAGFPPSDDEDEEGEEFVLDYVEHPGHGCRSCHYHRRNTGDPDIMCSLCYMRTCGMFVYSPVSEPEPEPEPEPEPARPTRRPKMAPAILRRPTSPVSRECNSSTDSCDSGPSNTPPEIHPVVPLCPIKPVAVRVGGRRQAVECIEDLLNEPGQPLDLSCKRPRP
binding result: no binding
